B1: TRAF3IP2 (parent)
chain: PGQPLPGASVRGLHPVQKVILNYP
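Also: lentivirally expressed fusions sorted by FACS into six bins by GFP to DsRed ratio, PSI derived from sequencing read proportions per bin multiplied by bin number.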

The data set covers variants of B1. Put plainly: protein stability index of a GFP-peptide fusion (GPS, HEK-293T) (PSI 1-6); higher = more stable. The settings on record: c terminus: a fixed tail appended.
As for PGQPLPGASVDGLHPVQKVILNYP [R11D], the protein stability index is 3.71.

Turning to PGQPLPGASVLGLHPVQKVILNYP [R11L], the protein stability index is 2.25.

Regarding PGQPLPGASVGGLHPVQKVILNYP [R11G], the protein stability index came to 2.73.

Turning to PGQPLPGASVAGLHPVQKVILNYP [R11A], the protein stability index is 2.6.

As to PGQPLPGASVVGLHPVQKVILNYP [R11V], the protein stability index was 2.84.

As for PGQPLPGASVFGLHPVQKVILNYP [R11F], the protein stability index stood at 2.06.

PGQPLPGASVNGLHPVQKVILNYP [R11N]: the protein stability index came to 2.96.

In the case of PGQPLPGASVEGLHPVQKVILNYP [R11E], the protein stability index was 3.19.

On to PGQPLPGASVWGLHPVQKVILNYP [R11W], for which the protein stability index stood at 2.08.

Turning to PGQPLPGASVTGLHPVQKVILNYP [R11T], the protein stability index came to 3.2.

PGQPLPGASVHGLHPVQKVILNYP [R11H]: the protein stability index worked out at 3.51.

In the case of PGQPLPGASVPGLHPVQKVILNYP [R11P], the protein stability index amounted to 3.79.

With PGQPLPGASVSGLHPVQKVILNYP [R11S], the protein stability index was 3.12.

PGQPLPGASVCGLHPVQKVILNYP [R11C]: the protein stability index is 3.3.

Consider PGQPLPGASVYGLHPVQKVILNYP [R11Y], for which the protein stability index amounted to 3.4.

Regarding PGQPLPGASVIGLHPVQKVILNYP [R11I], the protein stability index came out at 2.96.

Turning to PGQPLPGASVKGLHPVQKVILNYP [R11K], the protein stability index is 2.88.

Consider PGQPLPGASVMGLHPVQKVILNYP [R11M], for which the protein stability index is 2.75.

As for PGQPLPGASVRGLHPEQKVILNYP [V16E], the protein stability index amounted to 3.44.

For the variant PGQPLPGASVRGLHPDQKVILNYP [V16D], the protein stability index was 4.08.

As to PGQPLPGASVRGLHPCQKVILNYP [V16C], the protein stability index is 2.93.

PGQPLPGASVRGLHPAQKVILNYP [V16A]: the protein stability index worked out at 3.24.

Turning to PGQPLPGASLRGLHPVQKVILNYP [V10L], the protein stability index came to 2.61.

As to PGQPLPGASARGLHPVQKVILNYP [V10A], the protein stability index was 3.52.

For PGQPLPGASTRGLHPVQKVILNYP [V10T], the protein stability index came to 2.87.

Consider PGQPLPGASQRGLHPVQKVILNYP [V10Q], for which the protein stability index was found to be 3.05.

On to PGQPLPGASYRGLHPVQKVILNYP [V10Y], for which the protein stability index was 3.

As for PGQPLPGASWRGLHPVQKVILNYP [V10W], the protein stability index was 2.62.

Regarding PGQPLPGASMRGLHPVQKVILNYP [V10M], the protein stability index is 3.

As for PGQPLPGASDRGLHPVQKVILNYP [V10D], the protein stability index came to 2.96.

For PGQPLPGASRRGLHPVQKVILNYP [V10R], the protein stability index was found to be 2.57.

For the variant PGQPLPGASIRGLHPVQKVILNYP [V10I], the protein stability index worked out at 2.84.

Regarding PGQPLPGASKRGLHPVQKVILNYP [V10K], the protein stability index is 2.89.

For the variant PGQPLPGASPRGLHPVQKVILNYP [V10P], the protein stability index was found to be 3.22.

For PGQPLPGASNRGLHPVQKVILNYP [V10N], the protein stability index came out at 3.5.

Consider PGQPLPGASFRGLHPVQKVILNYP [V10F], for which the protein stability index is 2.36.

Consider PGQPLPGASCRGLHPVQKVILNYP [V10C], for which the protein stability index turned out to be 3.29.

As for PGQPLPGASHRGLHPVQKVILNYP [V10H], the protein stability index was 2.79.

PGQPLPGASERGLHPVQKVILNYP [V10E]: the protein stability index stood at 3.19.

As to PGQPLPGASSRGLHPVQKVILNYP [V10S], the protein stability index turned out to be 3.

As for PGQPLPGASGRGLHPVQKVILNYP [V10G], the protein stability index came out at 3.54.

Turning to PGQPLPGASVRRLHPVQKVILNYP [G12R], the protein stability index turned out to be 2.76.

Regarding PGQPLPGASVRYLHPVQKVILNYP [G12Y], the protein stability index was determined as 2.74.

Regarding PGQPLPGASVRELHPVQKVILNYP [G12E], the protein stability index was 3.87.

For the variant PGQPLPGASVRHLHPVQKVILNYP [G12H], the protein stability index came to 2.7.

PGQPLPGASVRSLHPVQKVILNYP [G12S]: the protein stability index was determined as 3.39.

As to PGQPLPGASVRDLHPVQKVILNYP [G12D], the protein stability index is 3.64.

Turning to PGQPLPGASVRMLHPVQKVILNYP [G12M], the protein stability index was determined as 2.85.

As to PGQPLPGASVRLLHPVQKVILNYP [G12L], the protein stability index worked out at 2.12.

PGQPLPGASVRKLHPVQKVILNYP [G12K]: the protein stability index was 3.2.

For the variant PGQPLPGASVRNLHPVQKVILNYP [G12N], the protein stability index came to 2.94.

Take PGQPLPGASVRILHPVQKVILNYP [G12I]: the protein stability index turned out to be 2.63.

For the variant PGQPLPGASVRFLHPVQKVILNYP [G12F], the protein stability index worked out at 2.3.

As for PGQPLPGASVRQLHPVQKVILNYP [G12Q], the protein stability index worked out at 3.42.

With PGQPLPGASVRCLHPVQKVILNYP [G12C], the protein stability index stood at 2.72.

PGQPLPGASVRALHPVQKVILNYP [G12A]: the protein stability index was 3.69.

Consider PGQPLPGASVRWLHPVQKVILNYP [G12W], for which the protein stability index came to 1.96.

As to PGQPLPGASVRVLHPVQKVILNYP [G12V], the protein stability index worked out at 2.43.

In the case of PGQPLPGASVRPLHPVQKVILNYP [G12P], the protein stability index stood at 3.14.

For PGQPLPGAAVRGLHPVQKVILNYP [S9A], the protein stability index is 3.99.

For PGQPLPGAVVRGLHPVQKVILNYP [S9V], the protein stability index is 3.27.

PGQPLPGAGVRGLHPVQKVILNYP [S9G]: the protein stability index was found to be 3.2.

Regarding PGQPLPGAPVRGLHPVQKVILNYP [S9P], the protein stability index came out at 3.58.

In the case of PGQPLPGADVRGLHPVQKVILNYP [S9D], the protein stability index came to 3.08.

On to PGQPLPGAQVRGLHPVQKVILNYP [S9Q], for which the protein stability index worked out at 2.86.

In the case of PGQPLPGARVRGLHPVQKVILNYP [S9R], the protein stability index was 2.22.

As for PGQPLPGAHVRGLHPVQKVILNYP [S9H], the protein stability index came to 3.5.

As to PGQPLPGAYVRGLHPVQKVILNYP [S9Y], the protein stability index came out at 2.62.

Turning to PGQPLPGAIVRGLHPVQKVILNYP [S9I], the protein stability index is 2.16.

As for PGQPLPGATVRGLHPVQKVILNYP [S9T], the protein stability index is 3.48.

With PGQPLPGANVRGLHPVQKVILNYP [S9N], the protein stability index turned out to be 3.33.

Take PGQPLPGAWVRGLHPVQKVILNYP [S9W]: the protein stability index is 2.97.

Turning to PGQPLPGALVRGLHPVQKVILNYP [S9L], the protein stability index was 3.09.

Regarding PGQPLPGAKVRGLHPVQKVILNYP [S9K], the protein stability index was 3.19.

For PGQPLPGAFVRGLHPVQKVILNYP [S9F], the protein stability index was 2.21.

For PGQPLPGAEVRGLHPVQKVILNYP [S9E], the protein stability index came out at 2.92.

As for PGQPLPGAMVRGLHPVQKVILNYP [S9M], the protein stability index stood at 2.68.

With PGQPLPGASVRGLHCVQKVILNYP [P15C], the protein stability index stood at 2.13.

For PGQPLPGASVRGLHMVQKVILNYP [P15M], the protein stability index amounted to 2.05.

For the variant PGQPLPGASVRGLHTVQKVILNYP [P15T], the protein stability index is 2.48.

For PGQPLPGASVRGLHSVQKVILNYP [P15S], the protein stability index was found to be 2.79.

On to PGQPLPGASVRGLHYVQKVILNYP [P15Y], for which the protein stability index was 1.91.

As to PGQPLPGASVRGLHKVQKVILNYP [P15K], the protein stability index worked out at 2.75.

Regarding PGQPLPGASVRGLHDVQKVILNYP [P15D], the protein stability index is 3.53.

PGQPLPGASVRGLHLVQKVILNYP [P15L]: the protein stability index is 2.25.

For PGQPLPGASVRGLHGVQKVILNYP [P15G], the protein stability index turned out to be 2.76.

As for PGQPLPGASVRGLHEVQKVILNYP [P15E], the protein stability index worked out at 3.12.

As for PGQPLPGASVRGLHHVQKVILNYP [P15H], the protein stability index amounted to 3.08.

As to PGQPLPGASVRGLHIVQKVILNYP [P15I], the protein stability index was 1.76.

PGQPLPGASVRGLHRVQKVILNYP [P15R]: the protein stability index worked out at 3.39.

With PGQPLPGASVRGLHAVQKVILNYP [P15A], the protein stability index came to 2.29.

In the case of PGQPLPGASVRGLHNVQKVILNYP [P15N], the protein stability index came to 2.92.

Take PGQPLPGASVRGLHVVQKVILNYP [P15V]: the protein stability index amounted to 2.02.

Regarding PGQPLPGASVRGLHQVQKVILNYP [P15Q], the protein stability index worked out at 3.85.
